Holding throughout (assay): cell-based or functional assay
Test [1] concerns the target human voltage-gated sodium channel Nav1.3 (human) (UniProt Q9NY46).
For test [2], the target named is human voltage-gated sodium channel Nav1.4 (human) (UniProt P35499).
Test [3] concerns the target human voltage-gated sodium channel Nav1.5 (human) (UniProt Q14524).
The target of test [4] is human voltage-gated sodium channel Nav1.7 (human) (UniProt Q15858).
In test [5] the target is TTX-resistant Nav channels in mouse DRG neurons.
Test [6] addresses TTX-sensitive Nav channels in mouse DRG neurons.
The target in test [7] is human Nav1.5 voltage-gated sodium channel (human) (UniProt Q14524).
In test [8] the target is human Nav1.7 voltage-gated sodium channel (human) (UniProt Q15858).
The target of test [9] is human Nav1.8 voltage-gated sodium channel (human) (UniProt Q9Y5Y9).
For test [10], the target named is hNav1.7 channels in HEK293 cell (human) (UniProt Q15858).

Values joined by “and” are separate entries in the source; they are usually repeats but may differ in a detail not shown here. Identical values can stand only once.

Chain of human voltage-gated sodium channel Nav1.4 (human) (P35499 whole entry): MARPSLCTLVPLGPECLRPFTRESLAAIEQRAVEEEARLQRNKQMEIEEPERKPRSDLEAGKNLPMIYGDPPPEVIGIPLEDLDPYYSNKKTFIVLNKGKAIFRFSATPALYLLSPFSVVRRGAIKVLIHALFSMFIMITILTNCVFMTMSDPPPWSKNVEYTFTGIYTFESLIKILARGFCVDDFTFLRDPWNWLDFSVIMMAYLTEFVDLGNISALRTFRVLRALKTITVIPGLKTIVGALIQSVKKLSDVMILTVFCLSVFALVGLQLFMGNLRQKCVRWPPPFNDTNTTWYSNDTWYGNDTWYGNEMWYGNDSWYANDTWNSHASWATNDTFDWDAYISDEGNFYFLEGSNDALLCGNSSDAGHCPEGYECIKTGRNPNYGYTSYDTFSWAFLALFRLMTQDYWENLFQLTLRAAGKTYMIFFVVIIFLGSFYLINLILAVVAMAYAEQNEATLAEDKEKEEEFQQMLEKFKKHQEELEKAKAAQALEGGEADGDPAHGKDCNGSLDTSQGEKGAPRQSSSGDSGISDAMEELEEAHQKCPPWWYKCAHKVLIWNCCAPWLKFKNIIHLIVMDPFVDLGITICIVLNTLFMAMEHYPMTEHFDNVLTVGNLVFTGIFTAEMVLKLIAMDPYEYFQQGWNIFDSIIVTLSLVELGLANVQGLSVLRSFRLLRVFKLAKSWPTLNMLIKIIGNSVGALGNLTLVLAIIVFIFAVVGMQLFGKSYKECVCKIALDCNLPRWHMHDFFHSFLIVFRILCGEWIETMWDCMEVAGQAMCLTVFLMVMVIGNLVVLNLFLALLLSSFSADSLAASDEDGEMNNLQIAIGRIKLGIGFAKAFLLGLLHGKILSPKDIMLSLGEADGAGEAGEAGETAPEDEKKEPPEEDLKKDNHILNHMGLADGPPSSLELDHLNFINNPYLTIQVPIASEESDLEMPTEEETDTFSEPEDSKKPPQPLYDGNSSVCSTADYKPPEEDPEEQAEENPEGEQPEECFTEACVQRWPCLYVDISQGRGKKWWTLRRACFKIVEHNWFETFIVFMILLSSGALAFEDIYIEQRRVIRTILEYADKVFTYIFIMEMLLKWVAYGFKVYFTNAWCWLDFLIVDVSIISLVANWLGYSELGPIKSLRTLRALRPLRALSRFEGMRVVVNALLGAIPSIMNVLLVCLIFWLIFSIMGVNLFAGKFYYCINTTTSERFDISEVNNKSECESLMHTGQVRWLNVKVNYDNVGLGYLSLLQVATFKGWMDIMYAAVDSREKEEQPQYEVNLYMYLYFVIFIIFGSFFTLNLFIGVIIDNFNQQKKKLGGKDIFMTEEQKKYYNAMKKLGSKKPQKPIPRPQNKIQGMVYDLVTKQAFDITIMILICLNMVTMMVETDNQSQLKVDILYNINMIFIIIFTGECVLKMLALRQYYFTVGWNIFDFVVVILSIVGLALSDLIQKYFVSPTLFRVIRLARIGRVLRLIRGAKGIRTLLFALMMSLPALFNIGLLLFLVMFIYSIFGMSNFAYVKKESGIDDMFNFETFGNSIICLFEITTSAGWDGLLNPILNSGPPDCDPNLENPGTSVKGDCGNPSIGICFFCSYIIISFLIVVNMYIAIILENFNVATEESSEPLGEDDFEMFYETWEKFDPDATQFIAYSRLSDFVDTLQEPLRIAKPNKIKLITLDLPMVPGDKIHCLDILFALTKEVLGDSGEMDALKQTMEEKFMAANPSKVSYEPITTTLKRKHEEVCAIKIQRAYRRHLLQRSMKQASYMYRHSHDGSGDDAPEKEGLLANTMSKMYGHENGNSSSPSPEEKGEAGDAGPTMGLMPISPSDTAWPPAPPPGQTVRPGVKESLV
Chain of human voltage-gated sodium channel Nav1.5 (human) (Q14524 whole entry): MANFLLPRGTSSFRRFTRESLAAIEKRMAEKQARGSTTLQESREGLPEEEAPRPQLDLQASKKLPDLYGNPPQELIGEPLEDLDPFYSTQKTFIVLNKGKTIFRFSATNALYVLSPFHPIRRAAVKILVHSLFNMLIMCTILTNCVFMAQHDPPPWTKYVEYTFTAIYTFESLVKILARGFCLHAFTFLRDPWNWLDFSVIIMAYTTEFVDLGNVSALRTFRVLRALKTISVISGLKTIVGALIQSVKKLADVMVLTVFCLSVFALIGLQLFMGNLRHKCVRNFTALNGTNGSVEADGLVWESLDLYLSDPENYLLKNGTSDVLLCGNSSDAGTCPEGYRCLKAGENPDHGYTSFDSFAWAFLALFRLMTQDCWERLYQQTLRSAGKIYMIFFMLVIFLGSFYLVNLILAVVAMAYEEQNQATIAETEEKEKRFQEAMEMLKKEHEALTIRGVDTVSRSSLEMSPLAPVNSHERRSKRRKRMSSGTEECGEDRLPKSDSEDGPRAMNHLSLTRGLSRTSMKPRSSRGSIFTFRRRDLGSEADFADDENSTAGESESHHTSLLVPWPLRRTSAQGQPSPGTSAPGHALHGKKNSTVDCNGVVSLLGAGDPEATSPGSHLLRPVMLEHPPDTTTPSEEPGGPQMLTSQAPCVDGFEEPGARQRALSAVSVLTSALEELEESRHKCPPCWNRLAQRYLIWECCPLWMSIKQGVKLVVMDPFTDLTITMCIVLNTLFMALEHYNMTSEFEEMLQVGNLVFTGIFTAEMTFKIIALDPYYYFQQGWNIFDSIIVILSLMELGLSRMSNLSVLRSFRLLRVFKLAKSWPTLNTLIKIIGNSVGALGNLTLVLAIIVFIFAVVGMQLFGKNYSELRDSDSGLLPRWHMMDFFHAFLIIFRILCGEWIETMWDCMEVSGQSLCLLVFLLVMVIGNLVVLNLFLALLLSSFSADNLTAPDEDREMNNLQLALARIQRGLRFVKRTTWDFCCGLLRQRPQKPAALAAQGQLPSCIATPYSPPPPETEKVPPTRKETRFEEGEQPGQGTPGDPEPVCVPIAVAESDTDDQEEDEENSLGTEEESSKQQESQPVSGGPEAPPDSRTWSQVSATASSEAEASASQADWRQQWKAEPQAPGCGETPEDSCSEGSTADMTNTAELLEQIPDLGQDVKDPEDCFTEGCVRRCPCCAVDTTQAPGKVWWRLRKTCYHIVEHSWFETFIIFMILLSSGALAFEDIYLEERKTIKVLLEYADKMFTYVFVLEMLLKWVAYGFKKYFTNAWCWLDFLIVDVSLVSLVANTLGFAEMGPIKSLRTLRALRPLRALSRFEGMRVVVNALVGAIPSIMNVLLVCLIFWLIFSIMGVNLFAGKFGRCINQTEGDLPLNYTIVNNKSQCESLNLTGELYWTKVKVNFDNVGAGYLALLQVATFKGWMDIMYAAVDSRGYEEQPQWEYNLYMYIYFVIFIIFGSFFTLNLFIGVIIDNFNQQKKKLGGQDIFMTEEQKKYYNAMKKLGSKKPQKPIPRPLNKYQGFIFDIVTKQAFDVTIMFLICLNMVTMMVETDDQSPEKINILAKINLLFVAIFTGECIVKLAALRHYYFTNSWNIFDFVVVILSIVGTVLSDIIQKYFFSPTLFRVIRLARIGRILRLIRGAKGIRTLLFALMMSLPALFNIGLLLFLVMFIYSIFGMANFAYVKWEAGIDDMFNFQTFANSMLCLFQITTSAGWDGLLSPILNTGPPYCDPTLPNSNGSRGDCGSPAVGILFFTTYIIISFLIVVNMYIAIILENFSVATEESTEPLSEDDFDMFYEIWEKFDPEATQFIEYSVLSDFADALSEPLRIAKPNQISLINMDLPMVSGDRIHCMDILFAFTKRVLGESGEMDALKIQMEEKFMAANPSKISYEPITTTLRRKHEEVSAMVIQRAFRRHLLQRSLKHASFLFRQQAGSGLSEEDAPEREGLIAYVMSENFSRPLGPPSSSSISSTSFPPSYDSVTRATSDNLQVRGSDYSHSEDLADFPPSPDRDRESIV

As to JzTx-45 (peptide), the IC50 (IonWorks Quattro) in [1] is 1800 nM; in test [2], 2400 nM; in test [3], above 5000 nM; in [4], 84 nM.

JzTx-46 (peptide): the IC50 (IonWorks Quattro) in test [1] is 5000 nM; in [2] it was above 5000 nM; in test [3] it was above 5000 nM; in test [4] it was 330 nM.

On to JzTx-V(1-29) (peptide), for which the WCPC Mean IC50, fully non-inactivated was above 1000 nM in [5]; 75 nM in [6]; 882 nM in test [7]; 0.141 nM in [8]; 810 nM in test [9]. The WCPC Mean IC50, partially inactivated in test [5] was above 1000 nM; in [6] it was 18 nM; in test [7], 426 nM; in test [8], 0.162 nM; in [9], 530 nM. Moreover, the IC50 (IonWorks Quattro) is 80 nM and 100 nM in test [1]; 3000 nM and 3500 nM in test [3]; 5 nM and 6 nM in [4]. Moreover, the IC50, IonWorks Quattro electrophysiology in [2] is 0.2 µM; in test [3] it was above 7 µM; in test [4] it was 0.04 µM.

JzTx-V(1-29)-FreeAcid (peptide): the IC50 (IonWorks Quattro) in [1] is 780 nM; in test [2] it was 610 nM; in [3], above 5000 nM; in test [4], 170 nM. For the same substance, in [4], the PX hNav1.7 Tonic IC50 amounted to 13.1 nM.

As for “[Phe6,Atz(2 kDa EtO-PEG*-[Phe6,Atz13*]GpTx-1(1-34)1)13]GpTx-1(1-34)”, the Nav1.7 WCPC IC50 in [10] came out at 0.58 nM.

(Values after patent publication US20160024159A1.)
